Source: the supplement of paper PMC10567573

B1: LOXL2 (parent)
chain: FSPDGPSRFRKAYKPEQPLVRLRG

Variants of: B1
Assay: protein stability index of a GFP-peptide fusion (GPS, HEK-293T) (PSI 1-6); higher = more stable
Conditions: c terminus: a fixed tail appended
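Also: lentivirally expressed fusions sorted by FACS into six bins by GFP to DsRed ratio, PSI derived from sequencing read proportions per bin multiplied by bin number.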

Protein stability index of substitutions, site by site:
R23: V 1.98, T 1.33, I 2.31, H 1.85, E 2.46, D 2.78, G 1.96, Y 1.2, N 1.29, P 1.85, W 2.25, M 2.33, K 1.53, F 1.97, Q 2.13, C 2.39, S 1.82, A 1.89, L 1.37
L22: G 1.9, W 1.47, P 2.05, M 2.04, F 1.21, E 1.68, K 1.58, H 1.52, R 2.35, V 1.54, Y 1.75, A 2.32, N 2.36, Q 1.99, D 1.93, I 2.42, C 1.95, T 2.26, S 1.74
P18: Y 1.65, W 2.44
V20: P 1.92, Q 1.4, N 2.42, M 2.05, R 2.51, G 1.41, T 1.92, W 3.13, H 1.63, Y 2.17, I 2.62, S 1.34, L 2, A 2.26, D 2.34, C 1.85, K 1.37, F 2.99, E 1.74
L19: N 1.22, S 2.29, K 1.65, E 2.34, V 1.41, I 2.36, A 2.01, M 1.82, D 2.46, T 1.89, W 2.04, Y 2.69, Q 2.56, H 1.45, P 1.23, G 2.08
G24: S 1.41, Q 2.72, P 1.82, N 1.91, W 2.07, D 1.8, I 1.44, L 3.27, A 2.71, H 1.52, R 2.79, E 1.91, Y 1.85, F 1.73, M 2.72, T 1.38, K 1.69, V 2.73, C 2.27
R21: F 2.12, H 2.25, K 1.25, A 1.65, G 1.67, V 1.65, M 1.59, T 1.53, W 1.92, D 2, L 1.26, C 2.37, S 1.73, N 1.61, P 1.77, I 2.57, E 1.99, Y 1.86, Q 1.8
